In article PMC10682391, “Discovery of a non-canonical prototype long-chain monoacylglycerol lipase through a structure-based endogenous reaction intermediate complex” (Nature Communications, 2023):

Experiments:
Tth MAG lipase [1] = target: T1, Tth MAG lipase (Thermoanaerobacter ethanolicus, UniProt A0A1G7VV58); experiment: X-ray crystal structure; LC-MS of dissolved crystals; format: binding; settings: endogenous ligand from E. coli; loosely coordinated tetrahedral intermediate at Ser113; SeMet, lysine-methylated protein; active site and lid tunnel
T1 construct: gene SAMN04244560_02687; full length, residues 1-259; E. coli; pETM-14, Ni-NTA purified (kinetics); pETBlue-1 (crystals, some SeMet and lysine-methylated); homodimer; Ser113/His233, HGF 35-37, FSE 77-79, lid 141-183

[2] = target: Tth MAG lipase (wild type), monoacylglycerol lipase from Thermoanaerobacter thermohydrosulfuricus (Thermoanaerobacter thermohydrosulfuricus); experiment: SEC; size exclusion chromatography profile, Superdex 75 increase 3.2/300 column (Cytiva); dimeric and monomeric fractions
Tth MAG lipase [3] = target: T1, Tth MAG lipase; experiment: X-ray crystal structure; format: binding; settings: active site, bound by Glu43; native protein crystals, no glycerol added
Tth MAG lipase [4] = target: T1, Tth MAG lipase; experiment: pNP ester hydrolysis, […] nm, Michaelis-Menten fit; format: biochemical; settings: 50 mM Tris-HCl pH 8.0, 40 °C, 1 mg/ml gum arabic
purified protein [5] = substrate: CCCC(=O)Oc1ccc([N+](=O)[O-])cc1; experiment: purified protein; format: biochemical, Thermoanaerobacter ethanolicus; settings: 50 mM Tris-HCl pH 8.0, 40 °C, 1 mg/ml gum arabic
purified protein [6] = substrate: CCCCCC(=O)Oc1ccc([N+](=O)[O-])cc1; experiment: purified protein; format: biochemical, Thermoanaerobacter ethanolicus; settings: 50 mM Tris-HCl pH 8.0, 40 °C, 1 mg/ml gum arabic
purified protein [7] = substrate: CCCCCCCC(=O)Oc1ccc([N+](=O)[O-])cc1; experiment: purified protein; format: biochemical, Thermoanaerobacter ethanolicus; settings: 50 mM Tris-HCl pH 8.0, 40 °C, 1 mg/ml gum arabic
purified protein [8] = substrate: CCCCCCCCCCCC(=O)Oc1ccc([N+](=O)[O-])cc1; experiment: purified protein; format: biochemical, Thermoanaerobacter ethanolicus; settings: 50 mM Tris-HCl pH 8.0, 40 °C, 1 mg/ml gum arabic
purified protein [9] = substrate: CCCCCCCCCCCCCC(=O)Oc1ccc([N+](=O)[O-])cc1; experiment: purified protein; format: biochemical, Thermoanaerobacter ethanolicus; settings: 50 mM Tris-HCl pH 8.0, 40 °C, 1 mg/ml gum arabic

## CCCCCCCCCCCCCCCCCC(=O)OCC(O)CO (stereo not shown) [glycerol monostearate, 2,3-dihydroxypropyloctadecanoate]
Tth MAG lipase [1]
  X-ray crystal structure; LC-MS of dissolved crystals: we modeled a monostearate (C18) acyl ligand into the electron density of the active Tth

## Tth MAG lipase (wild type), monoacylglycerol lipase from Thermoanaerobacter thermohydrosulfuricus (enzyme)
[2]
  stoichiometry N: 2

## OCC(O)CO [glycerol]
Tth MAG lipase [3]
  X-ray crystal structure: glycerol is found in a literally identical active site position in five out of six

## CC(=O)Oc1ccc([N+](=O)[O-])cc1 [C2 pNP ester]
Tth MAG lipase [4]
  Km: > 2 mM

B1: Tth MAG lipase (Thermoanaerobacter ethanolicus subsp. thermohydrosulfuricus) (protein)
chain: MQKAVEITYNGKTLRGMMHLPDDVKGKVPMVIMFHGFTGNKVESHFIFVKMSRALEKVGIGSVRFDFYGSGESDGDFSEMTFSSELEDARQILKFVKEQPTTDPERIGLLGLSMGGAIAGIVAREYKDEIKALVLWAPAFNMPELIMHESVKQYGAIMEQLGFVDIGGHKLSKDFVEDISKLNIFELSKGYDKKVLIVHGTNDEAVEYKVSDRILKEVYGDNATRVTIENADHTFKSLEWEKKAIEESVEFFKKELLKG
notes: full length, residues 1-259; E. coli; pETM-14, Ni-NTA purified (kinetics); pETBlue-1 (crystals, some SeMet and lysine-methylated); homodimer; Ser113/His233, HGF 35-37, FSE 77-79, lid 141-183
Purified protein [5]
  Km: 7.1 ± 0.7 x 10^-1 mM
  kcat: 8.6 ± 0.5 s⁻¹
Purified protein [6]
  Km: 3.6 ± 0.8 x 10^-1 mM
  kcat: 4.9 ± 0.4 s⁻¹
Purified protein [7]
  Km: 4.9 ± 1.5 x 10^-1 mM
  kcat: 5.5 ± 0.8 s⁻¹
Purified protein [8]
  Km: 0.1 mM
Purified protein [9]
  Km: 0.1 mM

B2: Tth MAG lipase (Thermoanaerobacter ethanolicus subsp. thermohydrosulfuricus; Y154A) (protein)
chain: MQKAVEITYNGKTLRGMMHLPDDVKGKVPMVIMFHGFTGNKVESHFIFVKMSRALEKVGIGSVRFDFYGSGESDGDFSEMTFSSELEDARQILKFVKEQPTTDPERIGLLGLSMGGAIAGIVAREYKDEIKALVLWAPAFNMPELIMHESVKQAGAIMEQLGFVDIGGHKLSKDFVEDISKLNIFELSKGYDKKVLIVHGTNDEAVEYKVSDRILKEVYGDNATRVTIENADHTFKSLEWEKKAIEESVEFFKKELLKG
notes: as for B1
Purified protein [6]
  Km: 4.8 ± 0.8 x 10^-1 mM
  kcat: 5.7 ± 0.4 s⁻¹

B3: Tth MAG lipase (Thermoanaerobacter ethanolicus subsp. thermohydrosulfuricus; E43A) (protein)
chain: MQKAVEITYNGKTLRGMMHLPDDVKGKVPMVIMFHGFTGNKVASHFIFVKMSRALEKVGIGSVRFDFYGSGESDGDFSEMTFSSELEDARQILKFVKEQPTTDPERIGLLGLSMGGAIAGIVAREYKDEIKALVLWAPAFNMPELIMHESVKQYGAIMEQLGFVDIGGHKLSKDFVEDISKLNIFELSKGYDKKVLIVHGTNDEAVEYKVSDRILKEVYGDNATRVTIENADHTFKSLEWEKKAIEESVEFFKKELLKG
notes: as for B1
Purified protein [6]
  Km: 7.1 ± 3.0 x 10^-1 mM
  kcat: 1.2 ± 0.3 x 10^1 s^-1
